Assay results taken from the supplement of paper PMC12636428.

System: Saccharomyces cerevisiae
Assay: transcriptional activation domain activity (GFP:mCherry ratio, weighted mean of sorted bins, harmonized to initial dataset scale) (arbitrary fluorescence ratio units); higher = stronger transcriptional activation
Settings: beta-estradiol 1 µM; induction time 4 h
Outline: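 Each value is an activation activity: the read-weighted mean of bin median fluorescence, averaged across barcodes, then mapped linearly to the initial dataset scale. The tiles, fused to an estradiol-inducible synthetic transcription factor, sat at the yeast URA3 locus in GFP-reporter diploids. Cells spent 4 hours at 30 °C in SC with 1 uM beta-estradiol before sorting into 8 GFP:mCherry bins, and tiles below 50 reads were removed.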

Sequence | transcriptional activation domain activity
NNTTSLGNAYGVCVMFVTFFDSCMVSLAALIVWRLPYYVVFLPWLVFACLDGV | 52100
SFNDTSFLNMEDPIRNEFSFDNGDRAVTDLPRSAHFLSDTGLEGINFSGLNDS | 55200
KKEKSPSEDEAEKPKSPKSPFAKLRATVKGKSPKTEKPAEEPKAEAAPEAKTE | 24100
YTRVVTRFKRLFVSSRGYTAFIPALFKVFCDVEHLAPIRSAIVFAWCRFYAVH | 67300
LPRFFFLSFYTFLLIFPLLHLFHHLSLLFSPPILLYSSLILFFSHFLPLLLFL | 38900
TGAFGATANTGSAFGQRPAFGSPAPTGFGAAQPAATGFGGGGAFGAGANNTTS | 22300
LIKKVKNEKQMYPILVCVLRLYDYVTHIMLIECQCEGIQSAFVSNQLSVKDTG | 52700
VLLCQMEDAVLSSSFAIKANTAMSQNTAEEFFNISEEEALNQLLENNNFDAFW | 140000
MYMSTIRSGHLQPVPSSSKLILFIFLFLFSLISLFFLVGSFPPFFLSYLWILC | 31200
MAPFSPFVYFFLFLVHNSWLFCFLLVCFPFFSILVFLSFCPFLSPFTSRFSFL | 56600
TSSPSAQTAASTTVVLVIGSDDKKVKEVGDELKTKLNVKGGGKGPRWSGKFTG | 24700
MRAVDIPSLAFNAVGVSNHGIQQMPVAEFATVMKSLVTILLKSMPLDKEKRYQ | 38900
TSTAPHRGFGFVEFEHPEDAKAAQDNMHLSELYGKTIKVNLARPLKGAGPGGR | 57100
LYNTLFLQLSAIAREFNFPSAAGLCCYMNFSDNGSIFAPRITDDAWIILWRRY | 71800
MPAYLDKPLTFLAFDWCVTFFFFCCFFLLILFLSLLVINVIVLCLLPLISLVS | < 6570
PEVMHALLFWTSNLLLFGINAIAFSKVSWFITLIRLVVNCRQKVALWMLMVFS | 60100
NPQLFLLGGCLTLVHLLFSSLWLWLVSILFAHDREYPSFVLLSYFMIFYFWTS | 54000
RAKKDAKESTTSKDTGTGKGAGSSREGRGSRNTSSRGRGSASGRQSTRKSRAR | 29300
VIEKLFWRVSALYICTHQFLLWALFMIRDYLLSKYPGSQLVLRCHMVLKIMLF | 46400

Sequence | transcriptional activation domain activity
MLLPFVCLLFFLLAFLFSLSLSALFCFSKRRLIPILFFIASLLLYNFVFPPFF | 38400
WLPNWLVPVMTAFSWMTWIAPKHRDLNILTGFNNGMGLLNFWPTWDWNVLLFT | 54200
YTNVYRCIKDEVYLLLSRLSLNWRKQDDYIWLLNLWTIWAAPWRLGNVPIISG | 53500
MIIFFFFFFLLCHWINTGIIFHVLDLMVKFLFFIFVDQQKKLSLLLFIHFAWL | 54700
HPNDAGDENDGEGESAAPAKEKEPAGTAATPASYQLQSIACHKGTSIHAGHYV | 33100
NIKTFLYTCITHIYINFILCLCACITHYQVYYHYYVNIFTFIFVWLCSFFLFL | 45200
RGGGRADQGRRKSPARARSASASSQSSSRSRSASRDSDQSNRRSKATSPGGRG | 32500
PKPVPEQEMKDAAEKPEPEETKAAGEVKPEDAMEVDQTSKPAKSKKGKIVKRR | 24400
MWFLHPLPFPLASSTWLHFVVLSFYIFFFLPFPSCALVLFWCWFFLLVRLLTS | 39400
MTEQPPAIRIADKDGDGPAKRRRRPALSCAECRNRKVRCDRREPCGSCTRLRS | 42400
SEEDEIKAGEEVPKKRRRRQALSCTECKRRKIKCDRQHPCGPCVRRTEADKCH | 52300
ISLVYGVRLAIRSSIFVTVRTHLARSIRYQSGLRAKQPIPTRLFLLYFLQLKY | 56900
KDDEKKDRHRSRRDRGDRDKEDERRRRKRRSRSRSNHRHGHERRRDRSRSREG | 17100
FLSTFFIIPLDVMCRKAVLCCNKHFLPFLMVSMGPRFHSPHFSLNTFCHRLFF | 47300
KVNQRKENKNNKNDEDNDDDNDDEEGKEKDKEEEKKDKKKKNKKCKHKKNKNK | 21700
EEKAPFDIPLDEFFTELEKHSNVSQFNTLDVSEGNQVINESASTNTSSALNCQ | 103000
ADANGGGLKAGGRVTIAIVRQAILEATSSPLQVYLKTCPLASKVFLVALLVRC | 58100
QVTALVRLIVRLNCELDLNLRGFVAALCIHWIKQSAGSASLKVLLYHAVFLAD | 44900
